Results taken from patent US20190375786A1, “STABLE PEPTIDES AND METHODS OF USE THEREOF” (Fred Hutchinson Cancer Research Center, priority 2016, published 2019).

system: not listed separately; assay: Resistance to elevated temperature, HPLC; type: physicochemical; settings: 70° C. for 1 hour; HPLC
Method in brief: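 Peptides were incubated at room temperature, 70° C or 100° C for one hour in ddH2O; another protocol used 70° C, 75° C or 100° C for one hour in 0.5 mM PBS, then pelleting and analysis of the supernatant. Remaining peptide was measured by C-18 RP-HPLC, 5–45% acetonitrile/0.1% TFA over 10 min.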

Substance | resistance to incubation at 70° C. (in words)
GSISIGIKCSPSIDLCEGQCRIRKYFTGYCSGDTCHCSG [SEQ ID NO: 3] | resistant

same assay, conditions: 70° C. for one hour; HPLC peak vs untreated peptide

Substance | Resistance to Temperature (70° C.)
32 (GSSCAKPRENCNRMNILCCRGECVCPTFGDCFCYGD) [compound 32] | High (A peptide classified as high indicates that the majority (at least 75%) of the HPLC peak of the treated peptide is still present as compared to the HPLC peak of the untreated peptide)

same assay, conditions: 75° C. for one hour; HPLC peak vs untreated peptide

Substance | Resistance to Temperature (75° C.)
52 (GSEGDCPISEAIKCVEKCKEKVEVCEPGVCKCSG) [compound 52] | High (A peptide classified as high indicates that the majority (at least 75%) of the HPLC peak of the treated peptide is still present as compared to the HPLC peak of the untreated peptide)
17 (GSACQFWSCNSSCISRGYRQGYCWGIQYKYCQCQ) [compound 17] | High (A peptide classified as high indicates that the majority (at least 75%) of the HPLC peak of the treated peptide is still present as compared to the HPLC peak of the untreated peptide)
50 (GSLFCKGGSCHFGGCPSHLIKVGSCFGFRSCCKWPWNA) [compound 50] | High (A peptide classified as high indicates that the majority (at least 75%) of the HPLC peak of the treated peptide is still present as compared to the HPLC peak of the untreated peptide)
32 (GSSCAKPRENCNRMNILCCRGECVCPTFGDCFCYGD) [compound 32] | High (A peptide classified as high indicates that the majority (at least 75%) of the HPLC peak of the treated peptide is still present as compared to the HPLC peak of the untreated peptide)
9 (GSQFCGTNGKPCVNGQCCGALRCVVTYHYADGVCLKMNP) [compound 9] | High (A peptide classified as high indicates that the majority (at least 75%) of the HPLC peak of the treated peptide is still present as compared to the HPLC peak of the untreated peptide)

same assay, conditions: 100° C. for 1 hour; HPLC

Substance | resistance to incubation at 100° C. (in words)
GSISIGIKCSPSIDLCEGQCRIRKYFTGYCSGDTCHCSG [SEQ ID NO: 3] | various degrees of degradation

same assay, conditions: 100° C. for one hour; HPLC peak vs untreated peptide

Substance | Resistance to Temperature (100° C.)
52 (GSEGDCPISEAIKCVEKCKEKVEVCEPGVCKCSG) [compound 52] | High (A peptide classified as high indicates that the majority (at least 75%) of the HPLC peak of the treated peptide is still present as compared to the HPLC peak of the untreated peptide)
17 (GSACQFWSCNSSCISRGYRQGYCWGIQYKYCQCQ) [compound 17] | High (A peptide classified as high indicates that the majority (at least 75%) of the HPLC peak of the treated peptide is still present as compared to the HPLC peak of the untreated peptide)
50 (GSLFCKGGSCHFGGCPSHLIKVGSCFGFRSCCKWPWNA) [compound 50] | Low (A peptide classified as low indicates that the majority (over 75%) of the HPLC peak of the treated peptide disappeared as compared to the HPLC peak of the untreated peptide)
32 (GSSCAKPRENCNRMNILCCRGECVCPTFGDCFCYGD) [compound 32] | High (A peptide classified as high indicates that the majority (at least 75%) of the HPLC peak of the treated peptide is still present as compared to the HPLC peak of the untreated peptide)
9 (GSQFCGTNGKPCVNGQCCGALRCVVTYHYADGVCLKMNP) [compound 9] | Low (A peptide classified as low indicates that the majority (over 75%) of the HPLC peak of the treated peptide disappeared as compared to the HPLC peak of the untreated peptide)

biological target: pepsin (Sus scrofa, UniProt P00791); assay: Pepsin digestion resistance in simulated gastric fluid, RP-HPLC; type: in vitro ADME, porcine; set-up: purchased Sigma Aldrich P7012; settings: 500 U/ml pepsin in SGF pH 1.05, 30 minutes at 37.5° C.; HPLC peak vs untreated peptide
Method in brief: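 Digestion resistance read by reversed-phase HPLC (C-18, 0.1% TFA, 5–45% acetonitrile over 10 min; 214/280 nm) after 12.5 μg peptide spent 30 min at 37.5 °C in pH 1.05 simulated gastric fluid, with or without 500 U/ml pepsin. Some samples quenched with Tris base and DTT.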

Chain of pepsin (P00791 60-385): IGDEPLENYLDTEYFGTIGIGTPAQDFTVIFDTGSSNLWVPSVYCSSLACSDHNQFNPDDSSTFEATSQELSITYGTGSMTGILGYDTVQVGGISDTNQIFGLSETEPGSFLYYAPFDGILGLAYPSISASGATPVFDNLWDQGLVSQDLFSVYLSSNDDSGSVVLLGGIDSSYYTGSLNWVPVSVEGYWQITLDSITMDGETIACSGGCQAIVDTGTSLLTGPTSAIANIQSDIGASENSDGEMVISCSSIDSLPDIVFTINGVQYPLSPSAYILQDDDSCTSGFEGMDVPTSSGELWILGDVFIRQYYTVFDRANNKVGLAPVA

Substance | Resistance to Pepsin (500 U/ml)
52 (GSEGDCPISEAIKCVEKCKEKVEVCEPGVCKCSG) [compound 52] | High (A peptide classified as high indicates that the majority (at least 75%) of the HPLC peak of the treated peptide is still present as compared to the HPLC peak of the untreated peptide)
17 (GSACQFWSCNSSCISRGYRQGYCWGIQYKYCQCQ) [compound 17] | High (A peptide classified as high indicates that the majority (at least 75%) of the HPLC peak of the treated peptide is still present as compared to the HPLC peak of the untreated peptide)
50 (GSLFCKGGSCHFGGCPSHLIKVGSCFGFRSCCKWPWNA) [compound 50] | Low (A peptide classified as low indicates that the majority (over 75%) of the HPLC peak of the treated peptide disappeared as compared to the HPLC peak of the untreated peptide)
32 (GSSCAKPRENCNRMNILCCRGECVCPTFGDCFCYGD) [compound 32] | High (A peptide classified as high indicates that the majority (at least 75%) of the HPLC peak of the treated peptide is still present as compared to the HPLC peak of the untreated peptide)
9 (GSQFCGTNGKPCVNGQCCGALRCVVTYHYADGVCLKMNP) [compound 9] | High (A peptide classified as high indicates that the majority (at least 75%) of the HPLC peak of the treated peptide is still present as compared to the HPLC peak of the untreated peptide)

system: not listed separately; assay: Combined resistance grouping of hitchin peptides (FIG. 27, from Table 2 data); type: physicochemical; settings: FIG. 27 grouping of hitchin peptides
Protocol: As shown by the data in TABLE 2, the tested peptides of the present disclosure show a range of resistance to proteases, reduction, and high temperature. The peptides were classified as high, medium, or low for each condition. […] For example, after a peptide is treated at 100° C., if the HPLC peak of the peptide is mostly absent as compared to HPLC peak of the peptide not treated at 100° C., then the peptide is classified as low or having low resistance to 100° C. After a peptide is treated with reducing conditions, if there is no or very minimal HPLC peak that overlaps with the HPLC peak of the peptide not treated with reducing conditions, then the peptide is classified as low or having low resistance to reducing conditions.
The peptides with the highest resistance data were further analyzed. […] The six peptides that were further tested were peptides comprising the sequences of SEQ ID NO: 27, SEQ ID NO: 24, SEQ ID NO: 6, SEQ ID NO: 10, SEQ ID NO: 12, and SEQ ID NO: 57, which were all hitchins. […] FIG. 27C is a sequence analysis of SEQ ID NO: 27, SEQ ID NO: 24, SEQ ID NO: 6, SEQ ID NO: 10, SEQ ID NO: 12, and SEQ ID NO: 57 from FIG. 27B. FIG. 27C identifies which amino acids are present at each position in SEQ ID NO: 27, SEQ ID NO: 24, SEQ ID NO: 6, SEQ ID NO: 10, SEQ ID NO: 12, and SEQ ID NO: 57. For example, at position one, all peptide sequences comprise a G amino acid residue; at position two, all peptide sequences comprise an S amino acid residue; at position three, all peptide sequences comprise either G, Q, or V amino acid, or null; and at position four, all peptide sequences comprise V, R, or K amino acid, or null. […] SEQ ID NO: 167 and SEQ ID NO: 168 describe sequences of peptides that are particularly resistant to reduction, pepsin, 75° C., and 100° C., which would typically degrade peptides. […] Additionally, SEQ ID NO: 169 describes sequences of peptides that are also particularly resistant to trypsin.

Substance | combined resistance to reduction, pepsin and elevated temperatures such as 75° C. and 100° C.
GSRPTDIKCSASYQCFPVCKSRFGKTNGRCVNGLCDCF [SEQ ID NO: 10] | highly resistant
GSQKILSNRCNNSSECIPHCIRIFGTRAAKCINRKCYCYP [SEQ ID NO: 6] | highly resistant
GSGVPTDVKCRGSPQCIQPCKDAGMRFGKCMNGKCHCTPK [SEQ ID NO: 56] | not highly resistant
GSAVCNLKRCQLSCRSLGLLGKCIGDKCECVKHG [SEQ ID NO: 8] | not highly resistant
GSQVSTNKKCSNTSQCYKTCEKVVGVAAGKCMNGKCICYP [SEQ ID NO: 18] | not highly resistant
GSQVQTNVKCQGGSCASVCRREIGVAAGKCINGKCVCYRN [SEQ ID NO: 30] | not highly resistant
GSISIGIKCSPSIDLCEGQCRIRKYFTGYCSGDTCHCSG [SEQ ID NO: 3] | not highly resistant
GSVVIGQRCYRSPDCYSACKKLVGKATGKCTNGRCDC [SEQ ID NO: 36] | not highly resistant
GSQIDTNVKCSGSSKCVKICIDRYNTRGAKCINGRCTCYP [SEQ ID NO: 35] | not highly resistant
GSVRIPVSCKHSGQCLKPCKDAGMRFGKCMNGKCDCTPK [SEQ ID NO: 24] | highly resistant

system: not listed separately; assay: Resistance to reduction by DTT, RP-HPLC; type: physicochemical; settings: 10 mM DTT in PBS, room temperature, 30 minutes; HPLC peak vs untreated peptide
Method in brief: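 Peptide (12.5 μg from a 2 mg/ml stock, or 0.015 mM final in PBS) was held 30 min at room temperature with or without 10 mM DTT. Reduced and non-reduced forms were compared by C-18 RP-HPLC using a 5–45% acetonitrile/0.1% TFA gradient over 10 min, with detection at 214 and 280 nm.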

Substance | Resistance to DTT Reduction (10 mM)
52 (GSEGDCPISEAIKCVEKCKEKVEVCEPGVCKCSG) [compound 52] | Low (A peptide classified as low indicates that the majority (over 75%) of the HPLC peak of the treated peptide disappeared as compared to the HPLC peak of the untreated peptide)
17 (GSACQFWSCNSSCISRGYRQGYCWGIQYKYCQCQ) [compound 17] | Moderate (A peptide classified as medium indicates that about half (between 25% and 75%) of the HPLC peak of the treated peptide disappeared as compared to the HPLC peak of the untreated peptide)
50 (GSLFCKGGSCHFGGCPSHLIKVGSCFGFRSCCKWPWNA) [compound 50] | Low (A peptide classified as low indicates that the majority (over 75%) of the HPLC peak of the treated peptide disappeared as compared to the HPLC peak of the untreated peptide)
32 (GSSCAKPRENCNRMNILCCRGECVCPTFGDCFCYGD) [compound 32] | Low (A peptide classified as low indicates that the majority (over 75%) of the HPLC peak of the treated peptide disappeared as compared to the HPLC peak of the untreated peptide)
9 (GSQFCGTNGKPCVNGQCCGALRCVVTYHYADGVCLKMNP) [compound 9] | Low (A peptide classified as low indicates that the majority (over 75%) of the HPLC peak of the treated peptide disappeared as compared to the HPLC peak of the untreated peptide)

biological target: trypsin (Sus scrofa, UniProt P00761); assay: Trypsin digestion resistance of soluble peptide, RP-HPLC; type: in vitro ADME, porcine; set-up: purchased Sigma Aldrich 6567; settings: 500 U/ml trypsin, 30 minutes at 37.5° C.; HPLC peak vs untreated peptide
Method in brief: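 Read-out was RP-HPLC (C-18, water/acetonitrile with 0.1% TFA, 5-45% over 10 min) of peptide left after trypsin treatment. Digest: 12.5 μg peptide, 500 U/ml porcine trypsin, PBS, 37.5° C for 30 min, stopped by soybean trypsin inhibitor; samples then reduced (10 mM DTT) or left non-reduced.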

Chain of trypsin (P00761 9-231): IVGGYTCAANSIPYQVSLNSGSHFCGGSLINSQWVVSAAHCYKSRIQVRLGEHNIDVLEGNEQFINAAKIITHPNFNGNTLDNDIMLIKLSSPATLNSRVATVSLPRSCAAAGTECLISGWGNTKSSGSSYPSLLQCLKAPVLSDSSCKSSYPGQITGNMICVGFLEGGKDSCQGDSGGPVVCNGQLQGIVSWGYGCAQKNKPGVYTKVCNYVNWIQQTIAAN

Substance | Resistance to Trypsin (500 U/ml)
52 (GSEGDCPISEAIKCVEKCKEKVEVCEPGVCKCSG) [compound 52] | Low (A peptide classified as low indicates that the majority (over 75%) of the HPLC peak of the treated peptide disappeared as compared to the HPLC peak of the untreated peptide)
17 (GSACQFWSCNSSCISRGYRQGYCWGIQYKYCQCQ) [compound 17] | Low (A peptide classified as low indicates that the majority (over 75%) of the HPLC peak of the treated peptide disappeared as compared to the HPLC peak of the untreated peptide)
50 (GSLFCKGGSCHFGGCPSHLIKVGSCFGFRSCCKWPWNA) [compound 50] | Low (A peptide classified as low indicates that the majority (over 75%) of the HPLC peak of the treated peptide disappeared as compared to the HPLC peak of the untreated peptide)
32 (GSSCAKPRENCNRMNILCCRGECVCPTFGDCFCYGD) [compound 32] | Low (A peptide classified as low indicates that the majority (over 75%) of the HPLC peak of the treated peptide disappeared as compared to the HPLC peak of the untreated peptide)
9 (GSQFCGTNGKPCVNGQCCGALRCVVTYHYADGVCLKMNP) [compound 9] | Moderate (A peptide classified as medium indicates that about half (between 25% and 75%) of the HPLC peak of the treated peptide disappeared as compared to the HPLC peak of the untreated peptide)
